Numbered stars: 1 amine (or outer) side, 2 acyl side, 3 side chain; on linkers, the order of the positions; unused ones are H or OH. Bridge positions count the residues as written; N and C are the ends. Side chains are listed from the residue outwards. Ends that are not written are not given here. * marks the point of attachment. C20 diacid = O=C(O)CCCCCCCCCCCCCCCCCCC(=O)*; γGlu = O=C(O)[C@H](CCC(=O)[*:2])N[*:1]
B1: N^ε1-[(4S)-4-carboxy-4-[[(4S)-4-carboxy-4-(19-carboxynonadecanoylamino)butanoyl]amino]butanoyl]-[Glu14,Arg17,Pro21,Pro27,Arg34]-h-amylin (peptide)
peptide: K([γGlu-γGlu-C20 diacid])CNTATCATQRLAEFLRHSSPNFGAIPSSTNVGRNTY-NH2
modifications: disulfide 2-7; N-terminus assumed
SMILES: CC[C@H](C)[C@H](NC(=O)[C@H](C)NC(=O)CNC(=O)[C@H](Cc1ccccc1)NC(=O)[C@H](CC(N)=O)NC(=O)[C@@H]1CCCN1C(=O)[C@H](CO)NC(=O)[C@H](CO)NC(=O)[C@H](Cc1c[nH]cn1)NC(=O)[C@H](CCCNC(=N)N)NC(=O)[C@H](CC(C)C)NC(=O)[C@H](Cc1ccccc1)NC(=O)[C@H](CCC(=O)O)NC(=O)[C@H](C)NC(=O)[C@H](CC(C)C)NC(=O)[C@H](CCCNC(=N)N)NC(=O)[C@H](CCC(N)=O)NC(=O)[C@@H](NC(=O)[C@H](C)NC(=O)[C@@H]1CSSC[C@H](NC(=O)[C@@H](N)CCCCNC(=O)CC[C@H](NC(=O)CC[C@H](NC(=O)CCCCCCCCCCCCCCCCCCC(=O)O)C(=O)O)C(=O)O)C(=O)N[C@@H](CC(N)=O)C(=O)N[C@@H]([C@@H](C)O)C(=O)N[C@@H](C)C(=O)N[C@@H]([C@@H](C)O)C(=O)N1)[C@@H](C)O)C(=O)N1CCC[C@H]1C(=O)N[C@@H](CO)C(=O)N[C@@H](CO)C(=O)N[C@H](C(=O)N[C@@H](CC(N)=O)C(=O)N[C@H](C(=O)NCC(=O)N[C@@H](CCCNC(=N)N)C(=O)N[C@@H](CC(N)=O)C(=O)N[C@H](C(=O)N[C@@H](Cc1ccc(O)cc1)C(N)=O)[C@@H](C)O)C(C)C)[C@@H](C)O
notes: also called compound 88
B2: N^ε1-[(4S)-4-carboxy-4-[[(4S)-4-carboxy-4-(19-carboxynonadecanoylamino)butanoyl]amino]butanoyl]-[Glu14,Arg17,Pro21,Pro27,Arg35]-h-amylin (peptide)
peptide: K([γGlu-γGlu-C20 diacid])CNTATCATQRLAEFLRHSSPNFGAIPSSTNVGSRTY-NH2
modifications: disulfide 2-7; N-terminus assumed
SMILES: CC[C@H](C)[C@H](NC(=O)[C@H](C)NC(=O)CNC(=O)[C@H](Cc1ccccc1)NC(=O)[C@H](CC(N)=O)NC(=O)[C@@H]1CCCN1C(=O)[C@H](CO)NC(=O)[C@H](CO)NC(=O)[C@H](Cc1c[nH]cn1)NC(=O)[C@H](CCCNC(=N)N)NC(=O)[C@H](CC(C)C)NC(=O)[C@H](Cc1ccccc1)NC(=O)[C@H](CCC(=O)O)NC(=O)[C@H](C)NC(=O)[C@H](CC(C)C)NC(=O)[C@H](CCCNC(=N)N)NC(=O)[C@H](CCC(N)=O)NC(=O)[C@@H](NC(=O)[C@H](C)NC(=O)[C@@H]1CSSC[C@H](NC(=O)[C@@H](N)CCCCNC(=O)CC[C@H](NC(=O)CC[C@H](NC(=O)CCCCCCCCCCCCCCCCCCC(=O)O)C(=O)O)C(=O)O)C(=O)N[C@@H](CC(N)=O)C(=O)N[C@@H]([C@@H](C)O)C(=O)N[C@@H](C)C(=O)N[C@@H]([C@@H](C)O)C(=O)N1)[C@@H](C)O)C(=O)N1CCC[C@H]1C(=O)N[C@@H](CO)C(=O)N[C@@H](CO)C(=O)N[C@H](C(=O)N[C@@H](CC(N)=O)C(=O)N[C@H](C(=O)NCC(=O)N[C@@H](CO)C(=O)N[C@@H](CCCNC(=N)N)C(=O)N[C@H](C(=O)N[C@@H](Cc1ccc(O)cc1)C(N)=O)[C@@H](C)O)C(C)C)[C@@H](C)O
notes: also called compound 89
B3: N^ε1-[(4S)-4-carboxy-4-[[(4S)-4-carboxy-4-(19-carboxynonadecanoylamino)butanoyl]amino]butanoyl]-[Glu14,Arg17,Pro21,Pro27,His34,Glu35]-h-amylin (peptide)
peptide: K([γGlu-γGlu-C20 diacid])CNTATCATQRLAEFLRHSSPNFGAIPSSTNVGHETY-NH2
modifications: disulfide 2-7; N-terminus assumed
SMILES: CC[C@H](C)[C@H](NC(=O)[C@H](C)NC(=O)CNC(=O)[C@H](Cc1ccccc1)NC(=O)[C@H](CC(N)=O)NC(=O)[C@@H]1CCCN1C(=O)[C@H](CO)NC(=O)[C@H](CO)NC(=O)[C@H](Cc1c[nH]cn1)NC(=O)[C@H](CCCNC(=N)N)NC(=O)[C@H](CC(C)C)NC(=O)[C@H](Cc1ccccc1)NC(=O)[C@H](CCC(=O)O)NC(=O)[C@H](C)NC(=O)[C@H](CC(C)C)NC(=O)[C@H](CCCNC(=N)N)NC(=O)[C@H](CCC(N)=O)NC(=O)[C@@H](NC(=O)[C@H](C)NC(=O)[C@@H]1CSSC[C@H](NC(=O)[C@@H](N)CCCCNC(=O)CC[C@H](NC(=O)CC[C@H](NC(=O)CCCCCCCCCCCCCCCCCCC(=O)O)C(=O)O)C(=O)O)C(=O)N[C@@H](CC(N)=O)C(=O)N[C@@H]([C@@H](C)O)C(=O)N[C@@H](C)C(=O)N[C@@H]([C@@H](C)O)C(=O)N1)[C@@H](C)O)C(=O)N1CCC[C@H]1C(=O)N[C@@H](CO)C(=O)N[C@@H](CO)C(=O)N[C@H](C(=O)N[C@@H](CC(N)=O)C(=O)N[C@H](C(=O)NCC(=O)N[C@@H](Cc1c[nH]cn1)C(=O)N[C@@H](CCC(=O)O)C(=O)N[C@H](C(=O)N[C@@H](Cc1ccc(O)cc1)C(N)=O)[C@@H](C)O)C(C)C)[C@@H](C)O
B4: N^ε1-[(4S)-4-carboxy-4-[[(4S)-4-carboxy-4-(19-carboxynonadecanoylamino)butanoyl]amino]butanoyl]-[Glu14,Arg17,Pro21,Pro27,His34]-h-amylin (peptide)
peptide: K([γGlu-γGlu-C20 diacid])CNTATCATQRLAEFLRHSSPNFGAIPSSTNVGHNTY-NH2
modifications: disulfide 2-7; N-terminus assumed
SMILES: CC[C@H](C)[C@H](NC(=O)[C@H](C)NC(=O)CNC(=O)[C@H](Cc1ccccc1)NC(=O)[C@H](CC(N)=O)NC(=O)[C@@H]1CCCN1C(=O)[C@H](CO)NC(=O)[C@H](CO)NC(=O)[C@H](Cc1c[nH]cn1)NC(=O)[C@H](CCCNC(=N)N)NC(=O)[C@H](CC(C)C)NC(=O)[C@H](Cc1ccccc1)NC(=O)[C@H](CCC(=O)O)NC(=O)[C@H](C)NC(=O)[C@H](CC(C)C)NC(=O)[C@H](CCCNC(=N)N)NC(=O)[C@H](CCC(N)=O)NC(=O)[C@@H](NC(=O)[C@H](C)NC(=O)[C@@H]1CSSC[C@H](NC(=O)[C@@H](N)CCCCNC(=O)CC[C@H](NC(=O)CC[C@H](NC(=O)CCCCCCCCCCCCCCCCCCC(=O)O)C(=O)O)C(=O)O)C(=O)N[C@@H](CC(N)=O)C(=O)N[C@@H]([C@@H](C)O)C(=O)N[C@@H](C)C(=O)N[C@@H]([C@@H](C)O)C(=O)N1)[C@@H](C)O)C(=O)N1CCC[C@H]1C(=O)N[C@@H](CO)C(=O)N[C@@H](CO)C(=O)N[C@H](C(=O)N[C@@H](CC(N)=O)C(=O)N[C@H](C(=O)NCC(=O)N[C@@H](Cc1c[nH]cn1)C(=O)N[C@@H](CC(N)=O)C(=O)N[C@H](C(=O)N[C@@H](Cc1ccc(O)cc1)C(N)=O)[C@@H](C)O)C(C)C)[C@@H](C)O
notes: also called compound 87

molecular target: T1, human amylin 3(a) receptor (human calcitonin receptor plus RAMP-3) (human, UniProt P30988 25-474; O60896 24-148, limits assumed); assay: SPA competition binding, displacement of 125I-rat amylin from membranes of Amylin 3(a)/CRE-luc BHK cells (Assay V)
T1 construct: whole, on cells; Whole cells in the luciferase assay (Assay II a); also called hAmylin-R; human amylin receptor
T1 sequence (looked up) 1: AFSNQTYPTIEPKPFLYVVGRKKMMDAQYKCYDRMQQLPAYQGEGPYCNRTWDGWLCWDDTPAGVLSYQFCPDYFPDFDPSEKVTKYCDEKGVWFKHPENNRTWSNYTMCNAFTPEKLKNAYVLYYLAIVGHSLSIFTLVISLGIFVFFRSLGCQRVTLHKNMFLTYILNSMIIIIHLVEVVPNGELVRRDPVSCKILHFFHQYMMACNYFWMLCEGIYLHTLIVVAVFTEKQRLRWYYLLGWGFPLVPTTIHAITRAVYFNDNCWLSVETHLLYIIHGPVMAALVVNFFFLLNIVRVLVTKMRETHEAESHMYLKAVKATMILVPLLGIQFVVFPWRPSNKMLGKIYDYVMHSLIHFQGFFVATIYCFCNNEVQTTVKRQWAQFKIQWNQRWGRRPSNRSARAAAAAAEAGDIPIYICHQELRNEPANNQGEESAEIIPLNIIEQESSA
T1 sequence (looked up) 2: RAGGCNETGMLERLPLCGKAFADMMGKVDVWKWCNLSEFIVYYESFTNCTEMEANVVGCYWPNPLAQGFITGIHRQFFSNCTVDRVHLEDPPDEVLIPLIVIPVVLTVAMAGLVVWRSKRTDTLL
Method in brief: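 SPA beads with BHK Amylin 3(a)/CRE-luc cell membranes (35 ng/μL final) in 50 mM Hepes pH 7.4, 1 mM CaCl2, 5 mM MgCl₂, 0.1% OA, 0.02% Tween20.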

Going from B1 to B2, the IC50 rises from 0.75 nM to 1.16 nM (1.5-fold).

B3 and B4 are within 1.5-fold of each other in IC50: 0.525 nM for the first, 0.633 nM for the second.

molecular target: T2, human calcitonin receptor (human, UniProt P30988 25-474); assay: cell-based or functional assay
T2 sequence (looked up): T1 sequence (looked up) 1

Going from B1 to B2, the “hCTR funct. EC50” value rises from 6.55 nM to 11.2 nM (1.7-fold).

Going from B3 to B4, the “hCTR funct. EC50” value falls from 7.05 nM to 1.09 nM (6.5-fold).

molecular target: T1, human amylin 3(a) receptor (human …); assay: cell-based or functional assay

Compared with B1, B2 is higher in “Ratio hCT/hAmylin funct.” value: 8.5 for the first, 27.8 for the second.

For B4, the “Ratio hCT/hAmylin funct.” value was 3.8.

Compared with B1, B2 is 1.9-fold lower in “hAmylin-R funct. EC50” value: 0.773 nM for the first, 0.404 nM for the second.

First: B3
Second: B4
The “hAmylin-R funct. EC50” value of the first is 1.6-fold higher: 0.445 nM for the first, 0.285 nM for the second.
